Reference: IntAct's records for PubMed 23395371

B1: Ras-related protein Rab-7L1 (Rattus norvegicus (Rat)), Q63481 (parent)
chain: MGSRDHLFKVLVVGDAAVGKTSLVQRYSQDSFSKHYKSTVGVDFALKVLQWSDSEMVRLQLWDIAGQERFTSMTRLYYRDASACVIMFDVTNATTFSNSQRWKQDLDSKLTLPSGEPVPCLLLANKSDLSPWAVSRDQIDRFSKENGFTGWTETSVKENKNINEAMRVLVEKMMNNSREDIMSSSTQGNYINLQTKPSPGWTCC

Variants of: B1
Conditions: with lrrk2_human LRRK2, Q5S007
Sequence of lrrk2_human LRRK2, Q5S007 (Q5S007 whole entry): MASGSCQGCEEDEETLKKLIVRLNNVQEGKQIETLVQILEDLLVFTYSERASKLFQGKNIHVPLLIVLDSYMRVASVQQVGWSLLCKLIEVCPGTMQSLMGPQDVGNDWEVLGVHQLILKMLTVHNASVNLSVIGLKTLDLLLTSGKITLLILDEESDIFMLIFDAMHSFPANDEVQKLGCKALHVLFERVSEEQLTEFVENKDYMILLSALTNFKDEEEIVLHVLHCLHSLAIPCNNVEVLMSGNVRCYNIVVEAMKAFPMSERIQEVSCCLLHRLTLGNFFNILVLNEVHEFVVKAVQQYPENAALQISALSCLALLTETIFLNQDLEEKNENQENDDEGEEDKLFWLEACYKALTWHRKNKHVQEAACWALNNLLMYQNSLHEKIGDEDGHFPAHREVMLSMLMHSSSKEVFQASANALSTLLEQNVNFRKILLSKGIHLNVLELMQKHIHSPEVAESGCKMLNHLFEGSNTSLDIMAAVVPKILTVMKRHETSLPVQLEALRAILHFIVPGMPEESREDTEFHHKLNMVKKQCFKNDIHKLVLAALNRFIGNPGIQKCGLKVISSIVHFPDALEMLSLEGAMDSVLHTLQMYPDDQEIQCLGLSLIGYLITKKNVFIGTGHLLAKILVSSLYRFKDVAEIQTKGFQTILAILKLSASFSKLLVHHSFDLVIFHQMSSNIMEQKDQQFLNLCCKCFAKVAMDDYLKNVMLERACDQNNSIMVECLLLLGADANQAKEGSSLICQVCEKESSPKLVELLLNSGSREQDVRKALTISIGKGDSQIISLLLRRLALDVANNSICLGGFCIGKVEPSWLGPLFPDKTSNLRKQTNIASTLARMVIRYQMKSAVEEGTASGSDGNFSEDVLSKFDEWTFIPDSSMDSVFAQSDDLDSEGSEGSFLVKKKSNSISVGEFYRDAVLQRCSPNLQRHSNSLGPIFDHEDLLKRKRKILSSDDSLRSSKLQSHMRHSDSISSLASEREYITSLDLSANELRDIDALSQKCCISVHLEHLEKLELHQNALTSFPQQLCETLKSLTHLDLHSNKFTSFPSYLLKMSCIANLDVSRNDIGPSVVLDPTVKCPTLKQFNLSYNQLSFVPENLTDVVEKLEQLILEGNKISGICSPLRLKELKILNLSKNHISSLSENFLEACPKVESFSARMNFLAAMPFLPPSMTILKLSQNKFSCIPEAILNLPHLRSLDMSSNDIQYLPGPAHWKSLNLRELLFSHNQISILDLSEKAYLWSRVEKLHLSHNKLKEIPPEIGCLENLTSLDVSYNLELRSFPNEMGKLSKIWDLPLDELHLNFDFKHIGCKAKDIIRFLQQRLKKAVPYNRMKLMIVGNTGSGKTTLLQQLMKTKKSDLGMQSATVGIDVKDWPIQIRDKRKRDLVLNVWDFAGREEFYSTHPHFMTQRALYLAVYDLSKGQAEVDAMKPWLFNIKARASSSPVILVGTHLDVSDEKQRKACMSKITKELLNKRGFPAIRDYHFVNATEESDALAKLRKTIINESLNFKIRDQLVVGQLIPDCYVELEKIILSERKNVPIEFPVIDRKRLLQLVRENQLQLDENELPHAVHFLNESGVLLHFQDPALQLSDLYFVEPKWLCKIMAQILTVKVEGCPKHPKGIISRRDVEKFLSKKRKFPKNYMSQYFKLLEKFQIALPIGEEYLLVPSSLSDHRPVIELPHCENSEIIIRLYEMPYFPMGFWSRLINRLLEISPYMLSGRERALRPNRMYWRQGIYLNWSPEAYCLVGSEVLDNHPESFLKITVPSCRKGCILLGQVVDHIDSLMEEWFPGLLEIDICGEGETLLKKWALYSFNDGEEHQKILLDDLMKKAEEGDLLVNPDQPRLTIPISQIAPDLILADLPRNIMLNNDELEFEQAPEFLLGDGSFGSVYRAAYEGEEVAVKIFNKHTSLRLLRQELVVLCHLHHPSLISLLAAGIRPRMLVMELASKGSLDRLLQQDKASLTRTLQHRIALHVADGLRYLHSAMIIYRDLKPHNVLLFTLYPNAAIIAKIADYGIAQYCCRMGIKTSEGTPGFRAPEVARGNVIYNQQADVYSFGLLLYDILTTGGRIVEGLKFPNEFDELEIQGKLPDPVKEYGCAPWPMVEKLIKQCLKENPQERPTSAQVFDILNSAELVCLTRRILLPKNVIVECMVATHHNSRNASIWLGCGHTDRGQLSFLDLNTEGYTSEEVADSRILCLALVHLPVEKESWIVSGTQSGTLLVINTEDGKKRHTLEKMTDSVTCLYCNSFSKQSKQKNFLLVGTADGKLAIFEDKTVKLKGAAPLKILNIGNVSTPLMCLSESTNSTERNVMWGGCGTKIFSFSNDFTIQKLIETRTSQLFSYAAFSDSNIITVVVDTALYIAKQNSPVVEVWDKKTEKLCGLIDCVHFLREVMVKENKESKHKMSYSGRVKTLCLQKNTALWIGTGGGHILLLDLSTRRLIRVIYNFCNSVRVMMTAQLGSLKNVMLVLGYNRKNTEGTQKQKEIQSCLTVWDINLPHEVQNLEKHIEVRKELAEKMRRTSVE

effect of a mutation on the interaction	Variant
decreasing interaction	MGSRDHLFKVLVVGDAAVGKNSLVQRYSQDSFSKHYKSTVGVDFALKVLQWSDSEMVRLQLWDIAGQERFTSMTRLYYRDASACVIMFDVTNATTFSNSQRWKQDLDSKLTLPSGEPVPCLLLANKSDLSPWAVSRDQIDRFSKENGFTGWTETSVKENKNINEAMRVLVEKMMNNSREDIMSSSTQGNYINLQTKPSPGWTCC [T21N]
decreasing interaction	MGSRDHLFKVLVVGDAAVGKTSLVQRYSQDSFSKHYKSTVGVDFALKVLQWSDSEMVRLQLWDIAGLERFTSMTRLYYRDASACVIMFDVTNATTFSNSQRWKQDLDSKLTLPSGEPVPCLLLANKSDLSPWAVSRDQIDRFSKENGFTGWTETSVKENKNINEAMRVLVEKMMNNSREDIMSSSTQGNYINLQTKPSPGWTCC [Q67L]
